From the domain aggregation screens of Martell et al. (2025)

assay: soluble fraction after stress (log2 fold change); higher = more stays soluble; pooled small domains, quantitative proteomics; details: stress: 75 degC
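Further: 20 min heating vs room temperature control held 20 min.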

Row | Sequence | soluble fraction (log2)
1 | HMTSEVPVGSNVRIRASTLAGERDFEGTMLPPAGEGLTTLKLVNGYNLSYPSKDVLDIEFLGGAGE | 0.14
2 | HMTSHPTHTILDGKVHVFMRDGSPFWWGGFHFKGKYLRTSTKQKNLDSAKTIAQQWYFQKQTEIASGE | -2.85
3 | HMTSKVTVLAVNGRITVSGKEQDETVSVYDTGGRLLYQGESDVINVPRKAMYIVTVSRKSYKVIV | -1.52
4 | HMTSLAGIERFLASGAIAGVGEAMAHRLVQKFGKETLEIIEKKPSRLTEVAGVGKKTAAKIHASYMEK | -0.344
5 | HMTSLGLEGLVNTTAIATSDLRPSGWALAGERKIFVVSEGEFIDNGDKIRILTVDGNRIVVRKETNK | -0.477
6 | HMTSLTSDEEQIINVLRAEESVYINALATKSKIPLQKLLGLLIQLEFKGLIHSLPGSHYKIV | -0.221
7 | HMTSNIIIVPNVVGMTKEQATAALAAAGLNIKLSGVETTDTAAVAVKQKPSANTKVEEGSVVTVEFDLK | ≥ 1.04
8 | HMTSPKSRIVSALLASPSRPEELAMRLGEDILTLMRTLTDFEASGIIQRLPDGRYTPTREYHLGLVDK | -0.12
9 | HMTSPRRLYALIVEHVGKDGVMHRSDVENVLAKVESEMDVDDLLDQLEINGTIIRRQDGTWQLL | -0.716
10 | HMTSRFITTEEGTLYVDADGRKVSGWQTIDGSRYYFDEHGIRQSGTIEVNGETYVLDEDGVL | 0.0516
11 | HMTSRWEIGYNVAKKYYDEHGNLDVERAVYDNFELKKWLNTQRYKNSAGTLAEKYKIKLDELGMNWER | -0.214
12 | HMTSSQLYLIEEDMEGERLDAFLAEVIADLSRTAIKDLISNGRVLVDGQARKPSYRVKEGEQVLIHVPEAR | -0.392
13 | HMTSVFQNSDGTWGHLTKTVNPLIYTIEYGRRTGFSSREEAEESYQRSLTSYQDQLSKLKKERD | 0.297
14 | HMTSVPGTVVTNANLRGGPGTNYPIVGKAPAGTTVNVVESTADRTWYYLDTGSWIAAFLVKLS | -0.33
15 | HMTSVRVPVKKEIWFWAIKESQRDLNEILARFPKMDKWINQEENPTFNQLEKVAKFLRVPFGYMFLDKPPK | -1.86
16 | HMTTETGTVKWFNEGKGFGFIAPDGGGKDLFAHFKEIQGSGFKTLTENQRVQFEVTQGQKGPQASNIRTL | 0.227
17 | HMTTHEQVAILRRELNGLVGAWHHRTGQAHGVTHSKLRKELGGPPAAVASAAQLSARIEKIRQWAT | -0.922
18 | HMTTIAQMTGPQRAAVILLVLGEDHGRTIWQEFDDDEIRIITRAMAELGTVDADEVERLMLDFVGKLSS | -2.67
19 | HMTTIAQNISNYRTRANMTQQQVADKLSVSHHTVSKWELGINTPSVEDMQKLAQVFGVTITELVVD | -0.652
20 | HMTTIHVDPEKISKIIGPGGKTIKKIVEETGAKIDIEEDGRVYIAAVNSEEAAKAIDMINGI | 0.0704
21 | HMTTIPAGRQQYILSLIRREGTVTVSRLAQELEVSELTIRRDLDQMAARNLVERTHGGATERR | -1.53
22 | HMTTKEEAAYQAIRSAIIDGELKPGQSVTIRDLASRFDLGRTPITDAMKHLALDGWLETTTGVGTRV | -0.183
23 | HMTTLAADFNSDGRVDIGDLSILAGNWGKSRTNEVDFNKYGDADYNGRIDIIDLSILATQFGQTDNSN | 0.321
24 | HMTTLDTVARQLRDRIREQLDPTGEMSDESLLRTIEEAVYRYSSSGHVLTANEKETVIRRIFHSFR | 0.042

Row | Sequence | soluble fraction (log2)
25 | HMTTMNSADLIKELEKAGWTLRGVKGSHHIYTHPARGGHLSVPHPKKDLGAGLARQLRKQAGL | -0.032
26 | HMTTPAAISKIKKLEEAKRLLATTTYSMKEIAVKLKYKSHTHFGMDFKNNTGMTPAEYRKAIKAKREKQMN | -1.96
27 | HMTTQERVSYSAFINDVETGRVAKVVISGYTIEGTRTNNSSFVTERPYGVDSNLSEVLMQNSVSIEGKA | -0.122
28 | HMTTQVNTVKIQLANGYEMTVLTSKTNVKEILEDNNIILENNEKVTPNIDEEISSNKTIKITDKSN | 0.055
29 | HMTTTSGLIKTIQTGRRKLGMDDETYRALLADVSGGKTSSKDLNAYQLKEVLRRMREAGFRS | 0.58
30 | HMTVDAVALGRRVRHLRKQAGLTLDQLAERTGVSGSHLSLVENARREPRLSLVQRIAEVLGVPVEDL | -1.49
31 | HMTVGEKIQYYRKKIGLSQEELGQKMLLSRQTISLWEMDKTLPTVDNLLRLKEIFSVSIDELLSENEPK | -1.31
32 | HMTVKNFNDLPGFKNENLAELKAMGITTISELAEALNDGGKIKEIIKNLSGVGPKTAEKWKDAIG | ≥ 1.04
33 | HMTVKVPDLRGKTLAEMQRILDDAGLKYEINDSTFSRTAIPGTVREVIPAPGSEVKLGRILFIAINGF | -2.19
34 | HMTVLIDEQSSDGLLKITVTANTAVKSITIADELLEDKEQLEDYLILVLNKAIARANQVNQTELDAVAK | 0.0536
35 | HMTVPAGIVLSSIRQDGDVLHIRGTAQSTERLNFFRNSFSASWGSPAQNGKRKADPVTGLVDFTISLK | -0.758
36 | HMTVPMKILILEDEQRNAMRLIRLLNDIDTTFIIEGPLTNIKEAVDFFQSGKTTDLILADIRL | -0.254
37 | HMTVSADQTTADAVIKLIDAIGTVSKNSGSAISAARSGYDALTDAQKKLVTNYNKLTQAEQVFSSLS | 0.494
38 | HMTVSLTDVPFVPEILDRLERPELDVLLAILNGATNTFDLAAKTGRSRDELDEVLDRLTTLGLIER | -0.532
39 | HMTVTLTTLRNGSTGAQVKTLQRLLSAMDYYNGETDGKFGISTAAAVKAFQRAKRLTVDGIVGKNTWTALL | -1.2
40 | HMTVTMADISQAYNEKRYLTTISLSNTYLTFAKPTTELLSIRYRTYFIIGKYAESLTEIAKL | 0.294
41 | HMTVTTDITQYFLQENGLLNGPNARQLRQKIGETLNIGYTNGKQLLKRAQQFGLTRDQILTALKK | -0.638
42 | HMTVVIKVQASQLESWKSSAGTEIKAKLIAVEDEKTYLFVTETGKTIRATAAQLDESSVSRARKLAGL | -2.37
43 | HMTYGYFELKAKNLDSLKQFLKGIAQVESIEEENNGLKVFLKNELESEELSEKLAEAKIFVSHLAKKK | -0.265
44 | HMTYKPAADFKPSDTSSLKEGMKVEHPKFGFGTVMKMEEVGTERKARINFADFGEKTLLLSFAKLKIHEN | -0.256
45 | HMTYNEYPEKEMQDLIDKSISQQEQAASQYGYSLGDYVTARYGFQSESDFREYVQGLAEDYMKEKI | -0.476
46 | HMTYQHQSIIHRRTRGAILTAAKELLAESGISGTNMIEIADRAQVSRASLYNHFRDKHEVFLALVES | -0.591
47 | HMTYSAWIEKAYSELEKKGITEAELSDALDKRGINLEDLKLMGPDEAVKYQSEVEGVVLELSKSKE | 0.154
48 | HMTYSEEEIERDLYVRGTLYQIGDLVENKIDGTSGEIVRRGPNYVQYSDGENFYKAFLHSIQEV | 0.0161

Row | Sequence | soluble fraction (log2)
49 | HMTYTMVAYGSQGDAVRQLQSELNRHGYQLDEDGVFGKKTRAAVRDYQKKNSLRLDGIAGDETWGSLLA | 0.696
50 | HMTYTPRAGSLASQVIGFFRHNPDEELLLDDITDKFDATRGNIHTLLAEAVRFKLLARYRNDDGDYVYKPG | -3.06
51 | HMVAADTVQVPDVTGKTVADAKQALISAGLQVGTVTAKDGKETANTILETSPAAGTSVDKGSKVNLVYSTG | 0.00808
52 | HMVAAITDLPVKSVNGRQMYYYVVRKGETVYSLTHTLGITHDRLVKANRSVEDGLRAGQILYFPVSEFG | -2.95
53 | HMVAELAEMAENKNITSAQLALAWILKQSENIIPIPGTKRIKYLNENIEAVNVDLSKEDVENIENLLRKYP | -0.104
54 | HMVAGHLQEKNGQFYAVLSYKDTKGKRRTKWVPTGLMVRGNKKRAEAMLNDIRRKFVPPEQED | -0.474
55 | HMVAGPDEPLSDREQGVLDLLAEGLSNKAISKQLGISVATVKSHLSNIYGKLQAENRMQAVARARELGLM | ≥ 1.04
56 | HMVAISNTSGLAGVAYWIQSNIPKGIDIRKDNPGIVTIKNWIDEEYRKGRTTTISEEEMFKLVREYMPEL | -1.87
57 | HMVAMGQRVVPLTHLSIDDVRRLLESTYGKDSGIEVTKPGTAAKGVIVTAPRTELDGIVALVKQA | -0.113
58 | HMVAMYLRVGISNGRRYLSIVQGYRDQVTKKVRHNTVKSLGYLDDLEKHYPDPIAHFKAVVEEMNKKQALE | -2.04
59 | HMVANDQILNQYGISDREAEIIGLLIEGLSNQQIAKQLYISPNTVKTHIKNIYAKVGVNNRLQLFSLLK | -0.435
60 | HMVANLPFNYKVYAKKGKLYVVISYKDSNGKYKKKWIRTGLDEGTKKKEVNTVADQIAAEYYSSMRLE | -3.52
61 | HMVAQQINDFRSERDASTGTLKRPLFDTLRDVISSRAQAYVSATGKPVTVEDLDRIYQAVEAEAKQAL | 0.0174
62 | HMVDDELTARRRVNLRRIADELGGAAAVARKTQKSVQQISSMLNGTKSFGSKIARDIEPKLGLPLQSLDKE | 0.0147
63 | HMVDDRPVTGTTLIREWQGRAYEVIVQAGHFEFQGQRYQSLSAIAKVITGTVWNGWAFFGLR | -0.415
64 | HMVDDTGLPTVLISDGRLLERNLHRLHLDHTWLQRRLEENNIPSIQSLFLLTVDKQHQLYFLKK | -1.74
65 | HMVDGTPALTDLKKVSKPGRRHYTGSQEIPRVLNGLGISIVSTSKGIMTGAQARRQKVGGELLAFV | 0.0345
66 | HMVDIIMDLLEAVAQARPADAFIKSLHIQYQERGGLSKKQLQGLYGKAAKTAGIPPGKLATLEAIILKRP | -2.52
67 | HMVDITPDLIRTLLERFGEYGVTKEHIEARIQRHIESILPAQVVQLRKTYNSLKDGMSQPSDWFDI | -1.9
68 | HMVDLEINGRQTLQFVANKYGIPVEKLATDLNIPSDRFGEKLGRLRRQYAFTMNDVRKSILKNK | -0.588
69 | HMVDPELFIWVESSKEPVYHLAYKIELFVHSTDPQDDVPVHRWQVFVDAHNGNILDKFDEVR | -0.292
70 | HMVDPRWETPDENLAEQIKSVMPVMWVYDREAKSFVERPAIDFSFSIFERTTLYIYDKDGNEIGFAR | -0.0443
